The values that follow are results of earlier work, collected in publication PMC4023866.

The Kd is a measure of binding affinity in units of concentration.

This series concerns the target GAPDH (Homo sapiens) (UniProt P04406).

In the case of NleB (from UniProt B7UI21), the Kd was 36 µM.
